Experimental data reported in IntAct's records for PubMed 25910212.

B1: EF-hand domain-containing protein 1 (Homo sapiens), Q5JVL4 (parent)
chain: MVSNPVHGLPFLPGTSFKDSTKTAFHRSQTLSYRNGYAIVRRPTVGIGGDRLQFNQLSQAELDELASKAPVLTYGQPKQAPPADFIPAHVAFDKKVLKFDAYFQEDVPMSTEEQYRIRQVNIYYYLEDDSMSVIEPVVENSGILQGKLIKRQRLAKNDRGDHYHWKDLNRGINITIYGKTFRVVDCDQFTQVFLESQGIELNPPEKMALDPYTELRKQPLRKYVTPSDFDQLKQFLTFDKQVLRFYAIWDDTDSMYGECRTYIIHYYLMDDTVEIREVHERNDGRDPFPLLMNRQRVPKVLVENAKNFPQCVLEISDQEVLEWYTAKDFIVGKSLTILGRTFFIYDCDPFTRRYYKEKFGITDLPRIDVSKREPPPVKQELPPYNGFGLVEDSAQNCFALIPKAPKKDVIKMLVNDNKVLRYLAVLESPIPEDKDRRFVFSYFLATDMISIFEPPVRNSGIIGGKYLGRTKVVKPYSTVDNPVYYGPSDFFIGAVIEVFGHRFIILDTDEYVLKYMESNAAQYSPEALASIQNHVRKREAPAPEAESKQTEKDPGVQELEALIDTIQKQLKDHSCKDNIREAFQIYDKEASGYVDRDMFFKICESLNVPVDDSLVKELIRMCSHGEGKINYYNFVRAFSN
B2: Keratin, type II cytoskeletal 6A (Homo sapiens), P02538 (parent)
chain: MASTSTTIRSHSSSRRGFSANSARLPGVSRSGFSSVSVSRSRGSGGLGGACGGAGFGSRSLYGLGGSKRISIGGGSCAISGGYGSRAGGSYGFGGAGSGFGFGGGAGIGFGLGGGAGLAGGFGGPGFPVCPPGGIQEVTVNQSLLTPLNLQIDPTIQRVRAEEREQIKTLNNKFASFIDKVRFLEQQNKVLETKWTLLQEQGTKTVRQNLEPLFEQYINNLRRQLDSIVGERGRLDSELRGMQDLVEDFKNKYEDEINKRTAAENEFVTLKKDVDAAYMNKVELQAKADTLTDEINFLRALYDAELSQMQTHISDTSVVLSMDNNRNLDLDSIIAEVKAQYEEIAQRSRAEAESWYQTKYEELQVTAGRHGDDLRNTKQEIAEINRMIQRLRSEIDHVKKQCANLQAAIADAEQRGEMALKDAKNKLEGLEDALQKAKQDLARLLKEYQELMNVKLALDVEIATYRKLLEGEECRLNGEGVGQVNISVVQSTVSSGYGGASGVGSGLGLGGGSSYSYGSGLGVGGGFSSSSGRAIGGGLSSVGGGSSTIKYTTTSSSSRKSYKH
partner: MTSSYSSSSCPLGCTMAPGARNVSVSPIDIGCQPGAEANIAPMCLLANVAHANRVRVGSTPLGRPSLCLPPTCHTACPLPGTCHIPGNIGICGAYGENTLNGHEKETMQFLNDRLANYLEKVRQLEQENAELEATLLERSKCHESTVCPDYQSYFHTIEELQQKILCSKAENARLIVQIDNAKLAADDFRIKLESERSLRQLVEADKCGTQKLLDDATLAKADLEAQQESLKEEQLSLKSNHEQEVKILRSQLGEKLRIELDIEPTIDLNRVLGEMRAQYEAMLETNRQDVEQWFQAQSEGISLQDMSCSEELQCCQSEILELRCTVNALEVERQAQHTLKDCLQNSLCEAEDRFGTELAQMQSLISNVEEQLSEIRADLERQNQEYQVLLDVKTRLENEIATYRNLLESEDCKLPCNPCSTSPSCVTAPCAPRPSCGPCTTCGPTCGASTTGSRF
B3: Aspartoacylase (Homo sapiens), P45381 (parent)
chain: MTSCHIAEEHIQKVAIFGGTHGNELTGVFLVKHWLENGAEIQRTGLEVKPFITNPRAVKKCTRYIDCDLNRIFDLENLGKKMSEDLPYEVRRAQEINHLFGPKDSEDSYDIIFDLHNTTSNMGCTLILEDSRNNFLIQMFHYIKTSLAPLPCYVYLIEHPSLKYATTRSIAKYPVGIEVGPQPQGVLRADILDQMRKMIKHALDFIHHFNEGKEFPPCAIEVYKIIEKVDYPRDENGEIAAIIHPNLQDQDWKPLHPGDPMFLTLDGKTIPLGGDCTVYPVFVNEAAYYEKKEAFAKTTKLTLNAKSIRCCLH
partner: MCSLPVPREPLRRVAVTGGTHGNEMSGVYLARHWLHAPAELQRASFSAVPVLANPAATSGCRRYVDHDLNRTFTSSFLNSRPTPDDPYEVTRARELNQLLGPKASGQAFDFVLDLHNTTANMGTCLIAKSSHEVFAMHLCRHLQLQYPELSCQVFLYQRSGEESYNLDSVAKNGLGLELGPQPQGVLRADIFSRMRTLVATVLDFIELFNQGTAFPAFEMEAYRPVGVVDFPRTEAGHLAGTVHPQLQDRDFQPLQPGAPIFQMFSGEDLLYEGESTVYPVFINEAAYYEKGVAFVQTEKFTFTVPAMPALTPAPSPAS
B4: Aspartoacylase (Homo sapiens), P45381 (parent)
chain: B3 chain
B5: Fructose-1,6-bisphosphatase 1 (Homo sapiens), P09467 (parent)
chain: MADQAPFDTDVNTLTRFVMEEGRKARGTGELTQLLNSLCTAVKAISSAVRKAGIAHLYGIAGSTNVTGDQVKKLDVLSNDLVMNMLKSSFATCVLVSEEDKHAIIVEPEKRGKYVVCFDPLDGSSNIDCLVSVGTIFGIYRKKSTDEPSEKDALQPGRNLVAAGYALYGSATMLVLAMDCGVNCFMLDPAIGEFILVDKDVKIKKKGKIYSLNEGYARDFDPAVTEYIQRKKFPPDNSAPYGARYVGSMVADVHRTLVYGGIFLYPANKKSPNGKLRLLYECNPMAYVMEKAGGMATTGKEAVLDVIPTDIHQRAPVILGSPDDVLEFLKVYEKHSAQ
partner: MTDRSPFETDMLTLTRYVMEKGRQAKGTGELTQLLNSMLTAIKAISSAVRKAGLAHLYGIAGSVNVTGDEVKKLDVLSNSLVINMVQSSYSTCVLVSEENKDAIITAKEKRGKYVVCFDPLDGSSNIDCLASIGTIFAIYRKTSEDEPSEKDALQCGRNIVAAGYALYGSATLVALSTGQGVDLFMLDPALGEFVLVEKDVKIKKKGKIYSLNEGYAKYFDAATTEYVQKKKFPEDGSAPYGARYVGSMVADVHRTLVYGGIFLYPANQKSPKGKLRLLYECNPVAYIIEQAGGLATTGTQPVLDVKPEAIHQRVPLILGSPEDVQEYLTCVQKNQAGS

Variants of: B1
Conditions: with ikzf3_human IKZF3, Q9UKT9
Chain of ikzf3_human IKZF3, Q9UKT9 (Q9UKT9 whole entry): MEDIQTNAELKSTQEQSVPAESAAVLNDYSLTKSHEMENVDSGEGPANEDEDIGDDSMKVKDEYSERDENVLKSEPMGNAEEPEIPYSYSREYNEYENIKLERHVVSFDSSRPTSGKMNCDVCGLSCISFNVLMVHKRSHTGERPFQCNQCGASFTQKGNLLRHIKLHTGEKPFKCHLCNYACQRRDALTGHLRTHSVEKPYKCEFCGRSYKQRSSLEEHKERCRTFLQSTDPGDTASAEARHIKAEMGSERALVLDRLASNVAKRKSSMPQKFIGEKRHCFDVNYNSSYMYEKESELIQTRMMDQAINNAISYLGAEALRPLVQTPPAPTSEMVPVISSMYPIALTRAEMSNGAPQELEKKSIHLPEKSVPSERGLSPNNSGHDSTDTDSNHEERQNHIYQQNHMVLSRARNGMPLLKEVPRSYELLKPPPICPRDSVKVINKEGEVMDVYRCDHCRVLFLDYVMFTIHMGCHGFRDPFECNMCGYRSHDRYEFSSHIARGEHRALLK

Variant	effect of a mutation on the interaction
R221H	disrupting interaction strength
P77T	disrupting interaction strength
T508R	with no effect
M448T	with no effect

Variants of: B1
Conditions: with kctd4_human KCTD4, Q8WVF5
Chain of kctd4_human KCTD4, Q8WVF5 (Q8WVF5 whole entry): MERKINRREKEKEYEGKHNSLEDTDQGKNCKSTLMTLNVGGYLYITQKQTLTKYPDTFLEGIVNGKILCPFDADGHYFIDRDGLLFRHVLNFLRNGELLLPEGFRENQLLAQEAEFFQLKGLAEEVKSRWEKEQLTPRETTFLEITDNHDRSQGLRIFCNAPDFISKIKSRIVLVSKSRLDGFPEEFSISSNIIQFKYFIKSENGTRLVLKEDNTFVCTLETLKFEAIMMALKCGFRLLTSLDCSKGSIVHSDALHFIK

Variant	effect of a mutation on the interaction
R221H	disrupting interaction strength
P77T	disrupting interaction strength
T508R	with no effect
M448T	with no effect

Variants of: B1
Conditions: with rim3a_human RIMBP3, Q9UFD9
Chain of rim3a_human RIMBP3, Q9UFD9 (Q9UFD9 whole entry): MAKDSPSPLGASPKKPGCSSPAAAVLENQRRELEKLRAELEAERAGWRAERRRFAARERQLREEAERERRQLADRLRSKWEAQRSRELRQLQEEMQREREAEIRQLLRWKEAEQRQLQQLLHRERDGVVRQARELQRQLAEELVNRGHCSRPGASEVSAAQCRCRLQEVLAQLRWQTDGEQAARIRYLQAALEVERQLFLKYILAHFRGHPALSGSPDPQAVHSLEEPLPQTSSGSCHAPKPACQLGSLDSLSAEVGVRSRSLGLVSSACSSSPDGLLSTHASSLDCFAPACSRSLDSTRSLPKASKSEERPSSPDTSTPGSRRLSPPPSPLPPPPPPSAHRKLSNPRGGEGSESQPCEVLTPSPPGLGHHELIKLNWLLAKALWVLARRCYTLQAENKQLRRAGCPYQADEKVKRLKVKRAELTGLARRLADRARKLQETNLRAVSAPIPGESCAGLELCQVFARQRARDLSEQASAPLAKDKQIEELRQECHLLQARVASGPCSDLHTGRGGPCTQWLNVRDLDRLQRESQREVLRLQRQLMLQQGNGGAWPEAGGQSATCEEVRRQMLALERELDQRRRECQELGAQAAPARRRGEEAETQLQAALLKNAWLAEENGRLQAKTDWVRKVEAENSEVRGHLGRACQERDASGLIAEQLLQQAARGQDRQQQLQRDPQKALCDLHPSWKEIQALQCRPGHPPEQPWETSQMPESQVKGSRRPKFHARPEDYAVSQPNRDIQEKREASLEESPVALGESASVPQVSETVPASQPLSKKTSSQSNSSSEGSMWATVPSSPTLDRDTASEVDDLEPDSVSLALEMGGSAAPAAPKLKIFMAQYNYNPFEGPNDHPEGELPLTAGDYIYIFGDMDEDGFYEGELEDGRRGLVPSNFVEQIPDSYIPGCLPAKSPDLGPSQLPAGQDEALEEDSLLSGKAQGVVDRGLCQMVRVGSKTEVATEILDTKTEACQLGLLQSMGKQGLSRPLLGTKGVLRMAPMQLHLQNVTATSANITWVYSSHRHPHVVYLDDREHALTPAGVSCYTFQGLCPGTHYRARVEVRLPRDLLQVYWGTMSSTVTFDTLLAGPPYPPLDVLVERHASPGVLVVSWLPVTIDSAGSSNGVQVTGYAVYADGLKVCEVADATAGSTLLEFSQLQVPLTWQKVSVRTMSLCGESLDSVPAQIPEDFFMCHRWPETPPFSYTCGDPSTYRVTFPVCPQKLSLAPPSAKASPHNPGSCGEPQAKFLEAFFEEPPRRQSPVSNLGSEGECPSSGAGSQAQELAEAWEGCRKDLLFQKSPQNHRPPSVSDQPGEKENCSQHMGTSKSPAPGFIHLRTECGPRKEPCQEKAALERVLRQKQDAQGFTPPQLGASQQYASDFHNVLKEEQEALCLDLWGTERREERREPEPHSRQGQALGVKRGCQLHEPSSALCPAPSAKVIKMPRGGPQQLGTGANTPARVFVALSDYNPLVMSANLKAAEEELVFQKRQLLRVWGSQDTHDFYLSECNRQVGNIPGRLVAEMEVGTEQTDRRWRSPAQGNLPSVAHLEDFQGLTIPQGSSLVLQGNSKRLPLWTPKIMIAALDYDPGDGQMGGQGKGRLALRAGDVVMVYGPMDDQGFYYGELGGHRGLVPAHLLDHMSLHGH

Variant	effect of a mutation on the interaction
R221H	disrupting interaction strength
P77T	disrupting interaction strength
T508R	with no effect
M448T	with no effect

Variants of: B1
Conditions: with trip6_human TRIP6, Q15654
Chain of trip6_human TRIP6, Q15654 (Q15654 whole entry): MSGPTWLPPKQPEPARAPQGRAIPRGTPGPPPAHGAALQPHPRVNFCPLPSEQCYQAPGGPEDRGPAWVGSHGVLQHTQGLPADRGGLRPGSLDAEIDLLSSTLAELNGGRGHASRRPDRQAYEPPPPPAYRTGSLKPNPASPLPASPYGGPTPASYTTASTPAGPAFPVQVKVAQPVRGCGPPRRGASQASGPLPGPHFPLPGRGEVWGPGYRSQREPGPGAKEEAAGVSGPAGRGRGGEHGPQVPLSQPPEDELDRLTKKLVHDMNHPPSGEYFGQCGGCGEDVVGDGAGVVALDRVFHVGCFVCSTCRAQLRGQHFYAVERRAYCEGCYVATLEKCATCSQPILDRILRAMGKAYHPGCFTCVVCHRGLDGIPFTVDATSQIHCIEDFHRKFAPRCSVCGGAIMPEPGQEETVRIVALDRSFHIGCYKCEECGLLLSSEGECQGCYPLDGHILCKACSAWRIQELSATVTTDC

Variant	effect of a mutation on the interaction
R221H	disrupting interaction strength
P77T	disrupting interaction strength
T508R	with no effect
M448T	with no effect

Variants of: B1
Conditions: with KRT15, P19012
Chain of KRT15, P19012 (P19012 whole entry): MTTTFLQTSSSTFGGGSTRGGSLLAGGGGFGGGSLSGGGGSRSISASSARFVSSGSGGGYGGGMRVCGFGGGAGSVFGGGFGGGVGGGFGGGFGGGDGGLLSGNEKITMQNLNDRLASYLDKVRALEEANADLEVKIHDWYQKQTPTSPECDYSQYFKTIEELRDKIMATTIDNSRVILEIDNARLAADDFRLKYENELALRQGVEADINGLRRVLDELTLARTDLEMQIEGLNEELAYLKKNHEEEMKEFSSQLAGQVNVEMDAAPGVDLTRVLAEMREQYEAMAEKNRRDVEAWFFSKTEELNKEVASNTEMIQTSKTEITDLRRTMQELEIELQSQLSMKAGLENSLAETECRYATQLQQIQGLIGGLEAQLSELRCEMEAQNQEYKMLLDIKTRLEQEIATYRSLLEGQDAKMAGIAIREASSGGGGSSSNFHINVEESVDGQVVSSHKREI

Variant	effect of a mutation on the interaction
R221H	disrupting interaction strength
P77T	disrupting interaction strength
T508R	with no effect
M448T	with no effect

Variants of: B1
Conditions: with TCF4, P15884-3
Chain of TCF4, P15884-3 (P15884 other isoform, or with tags, fused parts or gaps): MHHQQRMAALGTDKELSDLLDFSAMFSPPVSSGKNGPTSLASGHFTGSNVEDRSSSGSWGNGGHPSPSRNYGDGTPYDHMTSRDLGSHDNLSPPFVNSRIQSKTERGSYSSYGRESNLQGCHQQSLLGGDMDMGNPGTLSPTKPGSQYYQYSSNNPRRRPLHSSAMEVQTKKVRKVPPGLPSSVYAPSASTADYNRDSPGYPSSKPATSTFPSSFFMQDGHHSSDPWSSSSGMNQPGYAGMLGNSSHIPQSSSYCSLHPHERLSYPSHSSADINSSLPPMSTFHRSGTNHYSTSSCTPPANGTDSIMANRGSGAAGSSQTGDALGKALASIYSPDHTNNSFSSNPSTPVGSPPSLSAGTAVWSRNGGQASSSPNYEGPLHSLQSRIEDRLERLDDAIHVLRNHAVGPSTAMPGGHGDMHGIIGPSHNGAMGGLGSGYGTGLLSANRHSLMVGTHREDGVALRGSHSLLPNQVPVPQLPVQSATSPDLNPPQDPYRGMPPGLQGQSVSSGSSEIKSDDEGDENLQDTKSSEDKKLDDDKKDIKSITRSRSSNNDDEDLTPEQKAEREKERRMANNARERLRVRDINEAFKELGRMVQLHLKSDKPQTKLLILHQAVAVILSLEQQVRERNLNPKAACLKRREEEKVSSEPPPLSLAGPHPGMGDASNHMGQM

Variant	effect of a mutation on the interaction
R221H	disrupting interaction strength
P77T	disrupting interaction strength
T508R	disrupting interaction strength
M448T	with no effect

Variants of: B1
Conditions: with goga2_human GOLGA2, Q08379
Chain of goga2_human GOLGA2, Q08379 (Q08379 whole entry): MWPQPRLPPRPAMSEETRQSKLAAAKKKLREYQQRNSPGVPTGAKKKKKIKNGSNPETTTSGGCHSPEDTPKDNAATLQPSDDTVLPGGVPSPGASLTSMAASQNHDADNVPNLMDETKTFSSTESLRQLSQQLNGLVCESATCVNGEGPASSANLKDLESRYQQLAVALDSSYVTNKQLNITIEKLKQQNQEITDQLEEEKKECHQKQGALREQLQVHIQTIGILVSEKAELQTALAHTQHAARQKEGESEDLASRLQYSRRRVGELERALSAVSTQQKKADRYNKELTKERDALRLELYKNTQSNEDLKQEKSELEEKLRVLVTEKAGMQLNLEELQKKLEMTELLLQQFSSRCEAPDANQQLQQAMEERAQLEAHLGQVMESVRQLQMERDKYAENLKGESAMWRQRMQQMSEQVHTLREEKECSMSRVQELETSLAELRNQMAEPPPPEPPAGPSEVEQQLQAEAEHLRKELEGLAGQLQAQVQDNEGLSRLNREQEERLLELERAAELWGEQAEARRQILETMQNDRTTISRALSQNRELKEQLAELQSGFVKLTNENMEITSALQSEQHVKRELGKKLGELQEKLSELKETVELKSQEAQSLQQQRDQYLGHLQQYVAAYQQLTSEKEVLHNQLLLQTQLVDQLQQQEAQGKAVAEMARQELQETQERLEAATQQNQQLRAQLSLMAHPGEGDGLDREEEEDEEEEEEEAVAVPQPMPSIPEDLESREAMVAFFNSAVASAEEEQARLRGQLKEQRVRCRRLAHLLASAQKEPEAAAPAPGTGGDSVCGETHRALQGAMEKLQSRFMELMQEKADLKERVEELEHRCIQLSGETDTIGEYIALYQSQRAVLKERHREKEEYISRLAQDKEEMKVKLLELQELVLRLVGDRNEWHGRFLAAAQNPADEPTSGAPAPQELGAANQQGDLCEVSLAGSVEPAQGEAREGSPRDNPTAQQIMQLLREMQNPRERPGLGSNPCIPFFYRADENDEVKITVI

Variant	effect of a mutation on the interaction
R221H	disrupting interaction strength
P77T	disrupting interaction strength
T508R	with no effect
M448T	with no effect

Variants of: B2
Conditions: with krt38_human KRT38, O76015

Variant	effect of a mutation on the interaction
V523F	with no effect
T552S	with no effect
N21S	with no effect
F249L	with no effect

Variants of: B2
Conditions: with krt38_human KRT38, O76015
Remark: another data set of the same source

Variant	effect of a mutation on the interaction
N171K	with no effect
F174V	with no effect
A463P	with no effect
I462S	with no effect

Variants of: B3
Conditions: with acy3_human ACY3, Q96HD9

Variant	effect of a mutation on the interaction
E24G	disrupting interaction strength
M195R	disrupting interaction strength
E285A	disrupting interaction strength

Variants of: B3
Conditions: with acy3_human ACY3, Q96HD9
Remark: another data set of the same source

Variant	effect of a mutation on the interaction
I143F	disrupting interaction strength

Variants of: B4
Conditions: with keap1_human KEAP1, Q14145

Variant	effect of a mutation on the interaction
M195R	with no effect
E285A	disrupting interaction strength
E24G	with no effect

Variants of: B4
Conditions: with keap1_human KEAP1, Q14145
Remark: another data set of the same source

Variant	effect of a mutation on the interaction
M195R	causing an interaction
E285A	causing an interaction
E24G	causing an interaction

Variants of: B5
Conditions: with FBP2, O00757

Variant	effect of a mutation on the interaction
F233I	with no effect
R218K	with no effect
F194S	disrupting interaction strength

Variants of: B5
Conditions: with FBP2, O00757
Remark: another data set of the same source

Variant	effect of a mutation on the interaction
F194S	with no effect
